Experimental data: US6214569A, “Methods for screening for inhibitors of Alzheimer β-peptide filament formation” (President and Fellows of Harvard College, priority 1997, dated 2001)
Entries after “also recorded” stand apart in the source; their conditions may differ.

T1: α1 -ACT (Homo sapiens, UniProt P01011)
T1 sequence (P01011 24-423): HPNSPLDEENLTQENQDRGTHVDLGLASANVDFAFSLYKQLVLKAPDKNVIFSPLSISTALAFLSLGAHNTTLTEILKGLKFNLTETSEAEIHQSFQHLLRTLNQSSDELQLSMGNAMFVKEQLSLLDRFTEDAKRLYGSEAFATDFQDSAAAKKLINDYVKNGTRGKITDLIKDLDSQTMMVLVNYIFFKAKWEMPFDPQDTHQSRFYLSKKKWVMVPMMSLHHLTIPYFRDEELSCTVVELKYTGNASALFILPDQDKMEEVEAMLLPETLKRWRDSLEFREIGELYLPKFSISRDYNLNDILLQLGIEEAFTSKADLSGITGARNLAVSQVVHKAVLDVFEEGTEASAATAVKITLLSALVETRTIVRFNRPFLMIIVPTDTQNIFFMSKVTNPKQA


Tests used:
Aβ1-42 [1] = molecular target: T2, Aβ1-42 (Homo sapiens, UniProt P05067); assay: Aβ filament formation quantitated by electron microscopy (filament crossovers); type: biochemical; conditions: molar ratio 4:1, 18 hours
Protocol: At 18 hours, filaments were applied to carbon-coated Formvar on 200 mesh copper grids, dried, negatively stained with 3% uranyl acetate and visualized in a JEOL-100CX electron microscope. Many small and a few large filaments were visible in the electron micrograph and are representative of the products of this polymerization reaction.
The degree of filament formation was analyzed using electron microscopy. The reaction mixture was diluted with water or buffer. A Formvar-coated copper electron microscope grid was touched briefly to a droplet of the reaction mixture, allowing the filaments to stick to the Formvar plastic film. This procedure was also performed with Formvar which was precoated with carbon prior to the sticking of the filaments to the surface. The filaments were then stained with either a solution of uranyl acetate or sprayed ("shadowed") with a heavy metal such as platinum to allow their visualization.
The Aβ1-42 peptide was incubated in the presence of purified Apolipoproteins E2, E3 and E4 and α1 -ACT, ApoAI and ApoAII at a molar ratio of 4:1, as described in Examples 1 and 2. Electron microscopic examination of the reaction products was used to quantitate the amount of Aβ filament formation from the reaction of Aβ with ApoE3, ApoE4 or α1 -ACT. Five randomly chosen electron micrographs of each reaction product after 18 hours of incubation as in Examples 1 and 2 were analyzed by counting the number of crossovers that the filaments underwent with each other. This provides a measure of both the number and length of the amyloid filaments per unit area of the grid. […] The formation of Aβ filaments was inhibited when ApoE4 was incubated with Aβ in the presence of ApoE2 and equimolar amounts of ApoE4 and ApoE2 were used. Reducing the amount of Aβ filament formed to levels produced by the control protein, BSA (see FIG. 3).

α1 -ACT [2] = molecular target: T1, α1 -ACT; conditions: disclosed in U.S. Ser. No. 08/179,574; cited from earlier work
α1 -ACT [3] = molecular target: T1, α1 -ACT; conditions: disclosed in U.S. Ser. No. 08/179,574; cited from earlier work; remark: listed apart in the source
human cortical neurons = assay: Neurotoxicity of Aβ filaments formed with promoting factors, MTT assay (Example 4); type: cell-based; conditions: applied day 12, MTT day 16
Protocol: Certain promoters of the assembly of Aβ filaments of amyloid filaments formed in vitro also result in these filaments being neurotoxic. This was determined by using fetal human cortical tissue from 18-22 week gestation were used for this study. The protocol obtaining postmortem fetal tissue complied with all federal guidelines for federal research. The cortical cell culture were prepared as follows. The frontal and temporal lobes were removed from fetal brain. Cells were disassociated in calcium and magnesium free Hank's balanced salt solution containing 0.2% […] for 10 minutes at room temperature, and subsequently disassociated in serum-containing Dulbecco's Modified Eagle Medium (D-MEM) with DNase (0.2 mg/ml) for three times. The cells were plated onto laminin (10 μg/ml) coated 96-well plate ([…]) in a neuronbasal medium supplemented with B27 (Gibco), 2 mM glutamine and 1x antibiotic antimycotic solution and kept in a humidified 5% CO2 atmosphere. […]
The products of the reactions shown in FIG. 3 were both applied to two or three sister cultured wells on day 12. Cell viability was evaluated by morphological criteria and colorimetric MTT (Tetrazolium) on day 16. […] The plates were read on a BT 1000 microreader, using a test wavelength of 550 nm, a reference wavelength of 650 nm. The plates were routinely read within 20 minutes of addition of DMSO.

[4] = test system: primary human cortical neurons; assay: Promotion of Aβ1-42 neurotoxicity by pathological chaperones, MTT assay (Example 12); type: cell-based; conditions: Aβ1-42 80 μM with 0.4 μM protein, 48 hours at 22° C.; MTT on day 4
Protocol: Biosynthetic Aβ1-42 (80 μM) was incubated with ACT (CalBiochem), purified human apoE and individual control protein (0.4 μM) in 100 μl of 10 μM Tris-HCl, pH 7.0 for 48 hours at 22° C. The 12.5 μl of each reaction product was then added to 14 days old primary human cortical neurons in culture. The cell viability was measured by a colorimetric MTT (Sigma) assay on day 4. Data are expressed ±S.E.M. in FIGS. 7-9. ACT and apoE4 induced a 2- and 4-fold increase in neurotoxicity of Aβ1-42, respectively. […] Since Aβ1-42 is prone to self-aggregate into filaments, only aliquots of each preparation of Aβ1-42 devoid of filaments, as judged by electron microscopy, were used for experiments.
Method of cell culture: The cortical neuron cultures were prepared as follows. Frontal lobes of brain were removed from an electively terminated human fetus on gestational age of 18-21 weeks. Cortical cells were dissociated in serum-free medium containing 0.2% trypsin (Sigma) and 25 μg/ml DNase I (Sigma) and plated 4×10^4 cells per well (96-well plate, Falcon) precoated with 10 μg/ml laminin (Gibco). The cells were cultured in DMEM (Gibco) supplemented with 10% fetal calf serum (Gibco) and 2 mM glutamine. Cultures were kept at 37° C. in a 7% CO2 atmosphere. After day 4 in vitro, non-neuronal cell division was halted by exposure to 10^-5 M cytosine arabinoside. […]

Aβ1-42 [5] = molecular target: T2, Aβ1-42; assay: Aβ filament assembly monitored by light scattering; type: biochemical; conditions: Aβ1-42 80 μM, molar ratio 200:1, light scattering
Protocol: Biosynthetic Aβ1-42 was incubated at a concentration of 80 μM in 100 μl of 10 μM Tris-HCl; pH 7.0 at 22° C. for 8, 24 and 48 hours. Assembly of Aβ into high molecular weight filamentous structures was monitored by light scattering at […]. Light scattering increases linearly according to the size and number of filaments formed. The results are shown in FIG. 1 and indicate that Aβ peptide spontaneously forms amyloid filaments, starting after about 8 hours of incubation; the rate of formation levels off after about 24 hours. The Aβ1-42 was incubated, as described in Example 1, in the presence or absence of α1 -antichymotrypsin or a control protein (BSA) at a molar ratio of 200:1. Filament assembly was monitored by light scattering. The results are shown in FIG. 2 and indicate that α1 -ACT results in the rate of filament formation being enhanced about ten-fold over the controls. Formation of filaments was essentially complete after about 8 hours.

T2 sequence (P05067 672-713): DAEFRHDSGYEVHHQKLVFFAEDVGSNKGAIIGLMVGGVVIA

| Molecule | promotion of Aβ filament formation (in words) (Aβ1-42 [1]) | neurotoxicity of the reaction mixture of Aβ plus the substance (human cortical neurons) | further results |
| --- | --- | --- | --- |
| ApoAI: Apolipoprotein AI | inactive |  |  |
| ApoAII: Apolipoprotein AII | inactive |  |  |
| Aβ1-28: peptide corresponding to amino acids 1-28 of the N-terminal of Aβ peptide |  |  | complex formation with α1-ACT (α1 -ACT [2]): form stable complexes; effect on the ability of α1-ACT to inhibit chymotrypsin (α1 -ACT [3]): suppress the ability of α1 -ACT to inhibit chymotrypsin |
| Aβ: Alzheimer's β-peptide, 39-42 amino acid peptide; biosynthetic Aβ1-42 used in the examples [reference compound] |  | neurotoxic |  |
| α1 -ACT: protease inhibitor α1-antichymotrypsin, amyloid associated protein (protein, UniProt P01011 24-423, looked up) Alpha-1-antichymotrypsin: HPNSPLDEENLTQENQDRGTHVDLGLASANVDFAFSLYKQLVLKAPDKNVIFSPLSISTALAFLSLGAHNTTLTEILKGLKFNLTETSEAEIHQSFQHLLRTLNQSSDELQLSMGNAMFVKEQLSLLDRFTEDAKRLYGSEAFATDFQDSAAAKKLINDYVKNGTRGKITDLIKDLDSQTMMVLVNYIFFKAKWEMPFDPQDTHQSRFYLSKKKWVMVPMMSLHHLTIPYFRDEELSCTVVELKYTGNASALFILPDQDKMEEVEAMLLPETLKRWRDSLEFREIGELYLPKFSISRDYNLNDILLQLGIEEAFTSKADLSGITGARNLAVSQVVHKAVLDVFEEGTEASAATAVKITLLSALVETRTIVRFNRPFLMIIVPTDTQNIFFMSKVTNPKQA | promote the formation of Aβ filaments | greatest neurotoxicity | increase in neurotoxicity of Aβ1-42 [4]: 2 fold; enhancement of the rate of Aβ filament formation over the controls (Aβ1-42 [5]): at least ten; also recorded: about ten |
